These results are taken from US20240383984A1 (Genentech, published 2024).

Numbering of substitutions follows the chain as printed. Numbers in names are those of the source.

Experiment [1] has as its target T1, human CD3ε (human, UniProt P07766 23-126, limits assumed).
T1 construct: also called hCD3ε
The experiment in a line: ELISA on CD3. (In general: An ELISA detects its analyte on a solid surface through an enzyme-linked reagent.)

The target of experiment [2] is T2, human FcRH5 protein fragment (soluble) (human, UniProt Q96RD9 16-851).
T2 construct: whole entry named; also called soluble human FcRH5; Human FcRH5 (BIACORE analyte)
T2 sequence: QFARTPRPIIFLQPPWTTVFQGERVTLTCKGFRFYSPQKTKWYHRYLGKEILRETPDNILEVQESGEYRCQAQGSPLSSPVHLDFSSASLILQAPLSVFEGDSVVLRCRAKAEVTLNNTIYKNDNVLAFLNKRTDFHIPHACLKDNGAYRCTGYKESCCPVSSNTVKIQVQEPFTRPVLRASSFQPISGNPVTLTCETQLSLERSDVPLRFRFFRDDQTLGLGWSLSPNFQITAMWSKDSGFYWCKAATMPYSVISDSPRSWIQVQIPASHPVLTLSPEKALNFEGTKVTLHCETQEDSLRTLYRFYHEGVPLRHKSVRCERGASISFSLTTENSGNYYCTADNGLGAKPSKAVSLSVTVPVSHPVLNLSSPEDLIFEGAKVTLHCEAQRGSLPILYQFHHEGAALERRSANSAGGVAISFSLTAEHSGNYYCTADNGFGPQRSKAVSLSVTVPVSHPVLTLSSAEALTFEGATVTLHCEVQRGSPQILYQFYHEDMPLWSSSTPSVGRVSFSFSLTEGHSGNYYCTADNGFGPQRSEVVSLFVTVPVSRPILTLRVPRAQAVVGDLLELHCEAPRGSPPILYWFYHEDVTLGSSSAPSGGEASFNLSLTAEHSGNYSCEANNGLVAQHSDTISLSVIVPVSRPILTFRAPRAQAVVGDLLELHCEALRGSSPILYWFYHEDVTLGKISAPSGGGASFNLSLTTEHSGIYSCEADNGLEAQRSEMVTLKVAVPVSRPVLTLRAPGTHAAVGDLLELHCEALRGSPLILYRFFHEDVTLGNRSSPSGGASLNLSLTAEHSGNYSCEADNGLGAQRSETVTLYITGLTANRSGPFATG
Briefly: ELISA on FcRH5 (form of the coated FcRH5 not given).

The target in experiment [3] is T1, human CD3ε. Briefly: BIACORE, monovalent. In general terms: Surface plasmon resonance follows binding to a sensor surface in real time, without labels.
The target in experiment [4] is T1, human CD3ε. The experiment in a line: assay not stated.
For experiment [5], the target named is T3, human FcRH1 (full-length, on SVT2 cells) (human, UniProt Q96LA6 17-429).
T3 construct: whole, on cells; also called SVT2-FcRH1
T3 sequence (looked up): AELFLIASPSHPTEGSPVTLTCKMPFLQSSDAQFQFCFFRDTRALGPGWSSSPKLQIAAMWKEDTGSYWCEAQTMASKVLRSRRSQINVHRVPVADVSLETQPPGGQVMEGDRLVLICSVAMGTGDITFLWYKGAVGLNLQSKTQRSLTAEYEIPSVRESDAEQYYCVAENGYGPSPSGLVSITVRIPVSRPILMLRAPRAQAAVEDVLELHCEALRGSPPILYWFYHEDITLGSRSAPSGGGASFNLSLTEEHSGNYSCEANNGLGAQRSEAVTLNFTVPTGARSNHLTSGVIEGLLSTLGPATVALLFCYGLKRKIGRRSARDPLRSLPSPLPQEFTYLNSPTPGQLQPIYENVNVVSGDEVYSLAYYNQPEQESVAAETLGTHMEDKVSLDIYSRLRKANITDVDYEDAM
Briefly: FACS, SVT2 cells. As for the experimental part:
(§1) Human FcRH5, cyno FcRH5, human FcRH1, FcRH2, FcRH3, and FcRH4 transfected mouse SVT2 cells were used to test binding and cross-reactivity of FcRH5 TDBs. The method was carried out as follows. Cultured SVT2 cells were lifted using non-enzyme cell dissociation buffer (Sigma, #C5914). 1×10⁵ cells were suspended in 100 μL and incubated with FcRH5 TDBs at 3 μg/ml. […] Cells were washed twice with FACS buffer before flow cytometry analysis was carried out on a FACSCalibur.

The target in experiment [6] is T4, human FcRH4 (full-length, on SVT2 cells) (human, UniProt Q96PJ5 20-515).
T4 construct: whole, on cells; also called SVT2-FcRH4
T4 sequence (looked up): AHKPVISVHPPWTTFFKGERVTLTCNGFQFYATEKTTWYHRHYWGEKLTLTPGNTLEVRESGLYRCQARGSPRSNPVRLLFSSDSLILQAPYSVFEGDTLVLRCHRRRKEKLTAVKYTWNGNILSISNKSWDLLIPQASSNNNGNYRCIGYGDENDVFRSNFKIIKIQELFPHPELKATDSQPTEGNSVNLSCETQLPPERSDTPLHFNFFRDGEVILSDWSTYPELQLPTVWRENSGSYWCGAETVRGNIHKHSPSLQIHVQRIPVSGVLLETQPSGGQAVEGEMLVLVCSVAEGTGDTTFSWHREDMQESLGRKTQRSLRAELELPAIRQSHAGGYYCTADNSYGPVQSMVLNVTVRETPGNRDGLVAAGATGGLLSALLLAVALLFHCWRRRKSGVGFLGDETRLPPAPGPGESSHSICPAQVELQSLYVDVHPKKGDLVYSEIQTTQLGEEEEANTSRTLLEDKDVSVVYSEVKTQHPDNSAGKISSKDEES
The experiment in a line: FACS, SVT2 cells. As for the experimental part:
as §1
(Flow cytometry measures light scatter and fluorescence of single cells or particles in a stream.)

The target of experiment [7] is T2, human FcRH5 protein fragment (soluble). Briefly: BIACORE, TDB format.
Experiment [8] has the same target. Briefly: SPR (BIACORE), antibody as ligand, HuFcRH5 as sample in stepwise injections, 25 °C, 1:1 binding model.

T1 sequence (P07766 23-126 limits assumed): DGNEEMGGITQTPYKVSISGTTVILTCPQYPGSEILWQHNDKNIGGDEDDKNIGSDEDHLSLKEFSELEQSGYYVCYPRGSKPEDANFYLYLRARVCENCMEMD

B1: bis-Fab B (bispecific antibody, V domains shown)
VH 1: EVQLVESGPGLVKPSETLSLTCTVSGFSLTRFGVHWVRQPPGKGLEWLGVIWRGGSTDYNAAFVSRLTISKDNSKNQVSLKLSSVTAADTAVYYCSNHYYGSSDYALDNWGQGTLVTVSS
VL 1: DIQMTQSPSSLSASVGDRVTITCKASQDVRNLVVWFQQKPGKAPKLLIYSGSYRYSGVPSRFSGSGSGTDFTLTISSLQPEDFATYYCQQHYSPPYTFGQGTKVEIK
VH 2: EVQLVQSGAEVKKPGASVKVSCKASGFTFTSYYIHWVRQAPGQGLEWIGWIYPENDNTKYNEKFKDRVTITADTSTSTAYLELSSLRSEDTAVYYCARDGYSRYYFDYWGQGTLVTVSS
VL 2: DIVMTQSPDSLAVSLGERATICCKSSQSLLNSRTRKNYLAWYQQKPGQSPKLLIYWTSTRKSGVPDRFSGSGSGTDFTLTISSLQAEDVAVYYCKQSFILRTFGQGTKVEIK
notes: bis-Fab: 1G7.v85 Fab (HC A114C, constant part) crosslinked to 38E4.v1 Fab (LC N22C)
The term EC50 (read off the curve) denotes the midpoint of the concentration-response curve. Read a low EC50 (read off the curve) as greater potency. Regarding B1, the 50% effective concentration (EC50 (read off the curve)) with human CD3ε [1] is around 7 ng/mL; in experiment [2], around 10 ng/mL.

B2: 40G5c (antibody, V domains shown)
VH: B1 VH 2 with F27Y, S31N, E54G, N55D, D56G, D66G, V68A, I70L, G100S, R103N
VL: B1 VL 2 with C22N, S49P, T57A, K61E, K95T
notes: humanized anti-CD3ε; also called hu40G5c
For orientation: Kd means the equilibrium constant for the complex coming apart. Low readings indicate higher affinity, high ones lower affinity. The term EC50 denotes the midpoint of the concentration-response curve. A lower EC50 goes with a more potent agent. Molecule B2 showed a Kd in the experiment with human CD3ε [3] of 51 nM. In addition, the midpoint of the response with human CD3ε [4], the EC50, lay at 13 nM.

B3: 38E4.v1 (antibody, V domains shown)
VH: B1 VH 2
VL: B1 VL 2 with C22N
notes: humanized anti-CD3ε; also called anti-CD3 arm 38E4.v1
In the experiment with human CD3ε [3], B3 gave an equilibrium dissociation constant (Kd) of 0.5 nM. In addition, a half-maximal effect in the experiment with human CD3ε [4] (EC50) was put at 1 nM.

B4: F(ab′)2 A (bispecific antibody, V domains shown)
VH 1: B1 VH 1
VL 1: B1 VL 1
VH 2: B1 VH 2
VL 2: B1 VL 2 with C22N
Regarding B4, the concentration for a half-maximal effect (EC50 (read off the curve)) with human CD3ε [1] is around 0.7 ng/mL; in experiment [2], around 50 ng/mL.

B5: bis-Fab D (bispecific antibody, V domains shown)
VH 1: B1 VH 1
VL 1: B1 VL 1
VH 2: B1 VH 2
VL 2: B1 VL 2
notes: bis-Fab: 1G7.v85 Fab (LC A149C, constant part) crosslinked to 38E4.v1 Fab (LC N22C)
As to B5, the figures for the “EC50 (read off the curve)” value (in the experiment with human CD3ε [1]; in experiment [2]) were around 7 ng/mL and around 10 ng/mL, respectively.

B6: 38E4.v11 (antibody, V domains shown)
VH: B1 VH 2
VL: B1 VL 2 with C22N, K95T
notes: humanized anti-CD3ε
As for B6, in the experiment with human CD3ε [4], the half-maximal effective concentration (EC50) stood at 0.05 nM.

B7: hu1G7.v1.5/38E4.v1 TDB (bispecific antibody, V domains shown)
VH 1: B1 VH 1 with V64M
VL 1: B1 VL 1 with R30S, L32I, A43S, S52Y, S56T, H91Q, Y92F, S93Q
VH 2: B1 VH 2
VL 2: B1 VL 2 with C22N
notes: knob-into-hole TDB; also called 1G7.v1.5 TDB
As to B7, the binding result in experiment [5] and in experiment [6] was “no binding (tested: 3 µg/ml)” in each case. Also, binding in experiment [7] was put at a Kd of 1.1 nM.

B8: hu1G7.v1.7/38E4.v1 TDB (bispecific antibody, V domains shown)
VH 1: B1 VH 1 with L29T, V64M
VL 1: B1 VL 1 with S52Y, S56T, S93Q
VH 2: B1 VH 2
VL 2: B1 VL 2 with C22N
notes: knob-into-hole TDB; also called 1G7.v1.7 TDB
In the case of B8, the binding result in experiment [5] and in experiment [6] was “no binding (tested: 3 µg/ml)” throughout. The molecule further displayed a Kd in experiment [7] of 0.6 nM.

B9: h7D8.L1H2 (antibody)
heavy chain: EVQLVESGGGLVQPGGSLRLSCAVSGIDLSSYAMGWVRQAPGKGLEWIGTIGTGGTPYYASWAKGRFTISKDSSKNTVYLQMNSLRAEDTAVYFCARDMYTGSIYYDMWGQGTLVTVSS
light chain: DAQLTQSPSSLSASVGDRVTITCQSSQSVFNNAQLSWYQQKPGKPPKLLIYDTSNLASGVPSRFSGSGSGTDFTLTISSLQPEDFATYYCLGAYTDDADNAFGQGTKVEIK
notes: humanized, rabbit-derived anti-FcRH5 antibody; The sheet prints h7D8.L1H2* with an unexplained asterisk; also called hu7D8.L1H2; Hu7D8.L1H2
Broadly, the koff is a measure of how fast the partners let go of each other. Read a low koff as a long-lived complex. The kon is the rate constant with which the complex forms. A low value points to slow association. B9: in experiment [8], the off-rate (koff) came to 0.00136 s⁻¹ and the on-rate (kon) was determined as 1.08e+06 M⁻¹ s⁻¹.
